Source: patent publication US20020164702A1

Biological target: endogenous mouse MuSK on C2C12 myotubes or primary mouse myotubes (mouse) (UniProt Q61006)
Assay: cell-based or functional assay

Chain of UniProt Q61006 (Q61006 22-868): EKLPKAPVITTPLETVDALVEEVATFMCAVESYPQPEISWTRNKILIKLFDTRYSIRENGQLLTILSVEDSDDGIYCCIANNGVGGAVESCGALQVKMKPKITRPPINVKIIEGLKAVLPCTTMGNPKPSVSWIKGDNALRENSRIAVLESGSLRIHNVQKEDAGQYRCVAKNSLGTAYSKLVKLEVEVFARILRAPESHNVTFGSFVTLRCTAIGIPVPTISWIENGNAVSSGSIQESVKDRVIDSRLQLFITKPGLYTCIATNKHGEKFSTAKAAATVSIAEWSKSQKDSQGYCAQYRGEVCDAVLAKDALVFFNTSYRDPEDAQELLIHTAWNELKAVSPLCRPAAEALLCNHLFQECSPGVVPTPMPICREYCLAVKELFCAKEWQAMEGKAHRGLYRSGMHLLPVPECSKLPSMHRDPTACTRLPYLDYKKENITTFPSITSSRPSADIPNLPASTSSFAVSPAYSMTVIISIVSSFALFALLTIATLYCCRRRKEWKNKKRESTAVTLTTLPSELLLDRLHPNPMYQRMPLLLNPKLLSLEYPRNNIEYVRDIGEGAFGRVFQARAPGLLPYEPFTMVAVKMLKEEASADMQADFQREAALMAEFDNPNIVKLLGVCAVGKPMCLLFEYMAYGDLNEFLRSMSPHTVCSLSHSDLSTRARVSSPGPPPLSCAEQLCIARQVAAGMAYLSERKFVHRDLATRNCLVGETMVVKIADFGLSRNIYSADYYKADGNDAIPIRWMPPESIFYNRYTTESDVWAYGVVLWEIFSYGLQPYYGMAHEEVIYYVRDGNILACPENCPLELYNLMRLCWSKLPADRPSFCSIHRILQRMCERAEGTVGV

agrin (isoform not stated at that place) (ligand)
tyrosine phosphorylation of MuSK in myotubes, dose: 1 nM
